The labels stand for the following.
T1: recombinant human CD70 (AviTag, polyhistidine tag and chicken tenascin trimerization domain fused to the … (chicken; human, UniProt P10039 110-139, limits assumed)
T1 construct: domain: trimerization domain; Expressed in Expi293, purified by IMAC and SEC; Copies 3 is inferred from the trimerization domain; not shown: AviTag; polyhistidine tag
T1 sequence: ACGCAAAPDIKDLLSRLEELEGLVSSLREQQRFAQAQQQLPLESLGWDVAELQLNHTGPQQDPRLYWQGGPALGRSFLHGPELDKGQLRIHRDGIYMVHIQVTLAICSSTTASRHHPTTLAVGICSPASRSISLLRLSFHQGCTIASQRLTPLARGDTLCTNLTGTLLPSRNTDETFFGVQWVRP

B1: P08E02 anti-CD70 scFv-Fc fusion (Fc fusion)
chain: EVQLVQSGAEVKKPGESLKISCKGSGYSFTSSWIGWVRQMPGKGLEWMGIIYPGDSDTRYSPSFQGQVTISADKSISTAYLQWSSLKASDTAMYYCAKGLSQAMTGFGFDYWGQGTLVTVSSGGGGSGGGGSGGGGSGGGGSELDIQMTQSPSSLSASVGDRVTITCRASQSISRYLNWYQQKPGKAPKLLIYAASILQTGVPSRFSGSGSGTDFTLTISSLQPEDFATYYCQQSYSTTMWTFGQGTKVEIK
notes: scFv-Fc expressed in Expi293; not shown: part of the hinge and Fc from a modified human IgG2
B2: 12D7 anti-CD70 scFv-Fc fusion (Fc fusion)
chain: QVQLVESGGGVVQPGRSLRLSCVASGFTFSDYGIHWVRQAPGMGQEWVAVIWYDGSIKKYSDSVKGRFIISRDNSENTVYLQMNSLRGEDTAIYYCARDEVGTFGAFDFWGQGTKVTVSSGGGGSGGGGSGGGGSGGGGSDIQLTQSPSFLSASVGDRVSITCRASQDISSFLAWYQQKPGKAPVLLIYVASTLQSGVPSRFSGSGSGTEFTLTVSSLQPEDFATYYCQQLHVYPITFGQGTRLEIR
notes: as for B1
B3: 8C8 anti-CD70 scFv-Fc fusion (Fc fusion)
chain: EVQLVESGGGLVKPGGSLRLSCVASGFTFSSYSMNWVRQFPGKGLEWVSSISTSSNYIHYADSLQGRFTISRDNAKNSLYLQMSSLRVEDTAVYYCVRDKGTTLTNWYFDLWGRGTLVTVSSGGGGSGGGGSGGGGSGGGGSDMQMTQSPSSLSASVGDRVTLTCRASQGISNYLAWFQLKPGKVPKLLIYAASTLQSGVPSRFSGSGSGTDFALTISSLQPEDVATYYCQKYNSAPLTFGGGTKVEIK
notes: as for B1
B4: P15D02 anti-CD70 scFv-Fc fusion (Fc fusion)
chain: EVQLVQSGAEVKKPGESLKISCKGSGYSFASYWIGWVRQMPGKGLEWMGVIYPGTSETRYSPSFQGQVTISADKSISTAYLQWSSLKASDTAMYYCAKGLSASASGYSFQYWGQGTLVTVSSGGGGSGGGGSGGGGSGGGGSELDIQMTQSPSSLSASVGDRVTITCRASQSIDTYLNWYQQKPGKAPKLLIYSASSLHSGVPSRFSGSGSGTDFTLTISSLQPEDFATYYCQQSYSTTAWTFGQGTKVEIK
notes: as for B1
B5: 9E10 anti-CD70 scFv-Fc fusion (Fc fusion)
chain: QVQLVQSGAEVTKPGASVKVSCKASGYTFTSHYIYWVRQAPGQGLEWMGWINPNSGGTNYAQKFQDRVTMARDTSISTAYMELSRLRSDDTAVYYCAKDRKREYYYNFGMDVWGQGTTVTVSAGGGGSGGGGSGGGGSGGGGSDIQMTQSPSSLSASVGDRVILTCQASQDISNYLHWYQQKPGKAPKLLIYDASDLETGVPSRFSGSGSGADFTFTISNLQPEDFATYYCQQYDHLPITFGQGTRLEIK
notes: as for B1
B6: P08G02 anti-CD70 scFv-Fc fusion (Fc fusion)
chain: EVQLVQSGAEVKKPGESLKISCKGSGYTFPSSWIGWVRQMPGKGLEWMGIIYPDTSHTRYSPSFQGQVTISADKSISTAYLQWSSLKASDTAMYYCARASYFDRGTGYSSWWMDVWGQGTLVTVSSGGGGSGGGGSGGGGSGGGGSELDIQMTQSPSSLSASVGDRVTITCRASQSIYDYLHWYQQKPGKAPKLLIYDASNLQSGVPSRFSGSGSGTDFTLTISSLQPEDFATYYCQQSYTTPLFTFGQGTKVEIK
notes: as for B1
B7: 11C1 anti-CD70 scFv-Fc fusion (Fc fusion)
chain: QVQLQESGPGLVKPSETLSLNCTVSGGSISYYYWTWIRQPPGKGLEWIGHVIYSGTTNYNPSLKSRVTISVDTSKNQFSLKLNSVTAADTAVYYCVRAEGSLDAFDLWGQGTMVTVSSGGGGSGGGGSGGGGSGGGGSDIQMTQSPSILSASVGDRVTITCRASQSVSSWLAWYQQKPGKAPKVLIYKASSLESGVPSRFSGTGSGTEFTLTISSLQSDDFATYYCQQYNTYSHTFGQGTKLEIK
notes: as for B1
B8: P08F08 anti-CD70 scFv-Fc fusion (Fc fusion)
chain: EVQLVQSGAEVKKPGESLKISCKGSGYGFTSYWIGWVRQMPGKGLEWMGIIHPDDSDTKYSPSFQGQVTISADKSISTAYLQWSSLKASDTAMYYCASSYLRGLWGGYFDYWGQGTLVTVSSGGGGSGGGGSGGGGSGGGGSELQSVLTQPPSASGTPGQRVTISCSGSSSNIGSNYVNWYQQLPGTAPKLLIYGDYQRPSGVPDRFSGSKSGTSASLAISGLRSEDEADYYCATRDDSLSGSVVFGTGTKLTVL
notes: as for B1
B9: 10H10 anti-CD70 scFv-Fc fusion (Fc fusion)
chain: EVQLVESGGGLVQPGGSLRLSCAVSGFTFSNHNIHWVRQAPGKGLEWISYISRSSSTIYYADSVKGRFTISRDNAKNSLYLQMNSLRDEDTAVYYCARDHAQWYGMDVWGQGTTVTVSSGGGGSGGGGSGGGGSGGGGSDIQMTQSPSSVSASVGDRVTITCRASQGISSWLAWYQQKPGKAPKVLIYAASSLQSGVPSRFSGSGSGTDFTLTISSLQPEDFATYYCQQAFSFPFTFGPGTKVDIK
notes: as for B1
B10: 10A1 anti-CD70 scFv-Fc fusion (Fc fusion)
chain: QVQLQESGPGLVKPSETLSLTCTVSGGSISYYYWTWIRQPPGKGLEWIGHIYYSGSTNYNPSLKSRVTISIDTSKNLFSLKLSSVTAADTAVYYCARAEGSLDAFDFWGQGTMVTVSSGGGGSGGGGSGGGGSGGGGSDIQMTQSPSTLSASVGDRVTITCRASQSISTWLAWYQQKPGKAPKVLIYKASSLESGVPSRFSGSGSGTEFILTINSLQPDDFASYYCQQYKSYSHTFGQGTKLEIK
notes: as for B1
B11: 12C4 anti-CD70 scFv-Fc fusion (Fc fusion)
chain: QVQLVQSGAEVKKPGASVKVSCKASGYTFTGYYLHWVRQAPGQGLEWMGWINPNSGGTNYAQKFQGRVTMTRDTSITTAYMELSRLRIDDTAVYYCARDRGVTMIVDGMDDWGQGTTVTVSSGGGGSGGGGSGGGGSGGGGSDIVMTQSPLSLPVTPGEPASISCRSSQSLLHSNGYNYLDWYLQKPGQSPQVLILLGSNRASGVPDRVSASGSGTDFTLKISRMQAEDVGIYYCMQTLQTPFTFGQGTKLEIK
notes: as for B1
B12: 4F11 anti-CD70 scFv-Fc fusion (Fc fusion)
chain: QVTLKESGPVLVKPTETLTLTCTVSGFSLSNARMGVTWIRQPPGKALEWLAHIFSNDEKSYSTSLKSRLTISKDTSKTQVVLTMTNMDPVDTATYYCARIRDYYDISSYYDYWGQGTLVSVSSGGGGSGGGGSGGGGSGGGGSDIQMTQSPSAMSASVGDRVTITCRASQDISNYLAWFQQKPGKVPKRLIYAASSLQSGVPSRFSGSGSGTEFTLTISSLLPEDFATYYCLQLNSFPFTFGGGTKVEIN
notes: as for B1
B13: 12D6 anti-CD70 scFv-Fc fusion (Fc fusion)
chain: QVQLQESGPGLVKPSQTLSLTCTVSGGSISSDAYYWSWIRQHPGKGLEWIGYMYYSGITYYNPSLKSRVTISVDTSKNQFSLKLSSVTAADTAVYYCARDFGWYFDLWGRGTLVTVSSGGGGSGGGGSGGGGSGGGGSDIQMTQSPSSLSASVGDRVTITCRASQDISNYLAWYQQKPGKVPKLLIYAASTLHSGVPSRFSGSGSGTDFTLTISSLQPDDFAAYYCQKYNSAPRTFGQGTKVEIK
notes: as for B1
B14: 11E1 anti-CD70 scFv-Fc fusion (Fc fusion)
chain: QVQLQESGPGLVKPLQTLSLTCTVSGGSISSDGYYWSWIRQNPGKGLEWIGYMYYSGSTYYNPSLKSRVTISVDTSKNQFSLKLRSVTAADTAVYYCTRDFGWYFDLWGRGTLVTVSSGGGGSGGGGSGGGGSGGGGSDIQMTQSPSSLSASVGDSITITCRASQDIDNYLAWYQQKTGKVPKVLIYAASALQSGVPSRFSGSGSGTDFTLTISSLQPEDVATYYCQNYNSGPRTFGQGTKVEIK
notes: as for B1

Where only a bound is given, the exact number is not on record here.

The test has as its target T1, recombinant human CD70 (AviTag, …). The experiment in a line: SPR (Biacore 8K, 37 C): CD70 captured via anti-AviTag antibody on C1 chip, scFv-Fc as analyte; 1:1 Langmuir fit. As for the experimental part: The antibody binding kinetics were determined by surface plasmon resonance (Biacore 8K, GE Healthcare Bio-Sciences, Pittsburgh Pa.) at 37° C. in HBS-T+ (0.01 M HEPES pH 7.4, 0.15 M NaCl, 0.05% v/v Tween20, 1 mg/mL BSA). Recombinant human CD70 diluted in HBS-T+ was captured on a C1 chip immobilized with an anti-AviTag™ antibody. Purified anti-CD70 scFv-Fc fusions were serially diluted into HBS-T+, injected at 30 uL/min for 2-4 min, dissociation monitored for 10 min then the surface regenerated with 75 mM phosphoric acid between injections. Buffer cycles were collected for each anti-CD70 scFv-Fc fusion for double-referencing purposes (double-referencing as described in Myszka, D. G. Improving biosensor analysis. J. Mol. Recognit. 12, 279-284 (1999)). Kinetic association rates (kₒₙ) and dissociation rates (koff) were obtained simultaneously by fitting the double-referenced sensorgrams globally to a 1:1 Langmuir with mass transport model using Biacore 8K Evaluation Software (GE Healthcare Bio-Sciences, Pittsburgh Pa.) then used to calculate an equilibrium dissociation constant (KD) from the kinetic rate constants (KD=koff/kₒₙ). The data was fit to a 1:1 steady state affinity model using Biacore 8K Evaluation Software to determine a steady state equilibrium dissociation constant (SS KD) as needed.
A general note: Surface plasmon resonance follows binding to a sensor surface in real time, without labels.
What is called Kd is the equilibrium constant for the complex coming apart. Usually koff stands for the first-order rate constant of dissociation. A word on the kon: it is a measure of how fast the partners come together. Consider B1, for which the Kd amounted to 5.3 nM, the koff worked out at 0.00438 s⁻¹, the kon came to 823000 M⁻¹ s⁻¹ and the “t1/2” value stood at 2.6 min.
In the case of B2, the Kd was 1.7 nM, the koff was 0.000755 s⁻¹, the kon was 441000 M⁻¹ s⁻¹ and the “t1/2” value is 15.3 min.
The matching figures for B3: 15.4 nM, 0.00159 s⁻¹, 103000 M⁻¹ s⁻¹ and 7.3 min.
Take B4: the Kd is less than 0.3 nM, the koff was less than 8.05e-05 s⁻¹, the kon is 286000 M⁻¹ s⁻¹ and the “t1/2” value is more than 136 min.
Take B5: the Kd worked out at 2.6 nM, the koff came to 0.00212 s⁻¹, the kon was 825000 M⁻¹ s⁻¹ and the “t1/2” value was 5.4 min.
As for B6, the Kd amounted to 330 nM, the koff is 0.00788 s⁻¹, the kon amounted to 23900 M⁻¹ s⁻¹ and the “t1/2” value is 1.5 min.
For B7, in that order: 0.8 nM, 0.000186 s⁻¹, 224000 M⁻¹ s⁻¹ and 62.2 min.
Regarding B8, the Kd stood at 10.7 nM, the koff worked out at 0.0153 s⁻¹, the kon is 1.44e+06 M⁻¹ s⁻¹ and the “t1/2” value stood at 0.8 min.
Turning to B9, the Kd is 69.3 nM, the koff came out at 0.0032 s⁻¹, the kon turned out to be 46200 M⁻¹ s⁻¹ and the “t1/2” value was 3.6 min.
Take B10: the Kd worked out at 1.3 nM, the koff was determined as 0.000773 s⁻¹, the kon was determined as 577000 M⁻¹ s⁻¹ and the “t1/2” value was determined as 14.9 min.
B11: the dissociation constant (Kd) was determined as 0.3 nM, the koff came to 0.000455 s⁻¹, the kon came to 1.56e+06 M⁻¹ s⁻¹ and the “t1/2” value turned out to be 25.3 min.
Turning to B12, the Kd is 1.9 nM, the dissociation rate constant (koff) turned out to be 0.0016 s⁻¹, the kon came out at 825000 M⁻¹ s⁻¹ and the “t1/2” value is 7.2 min.
The matching figures for B13: 27.3 nM, 0.00194 s⁻¹, 71200 M⁻¹ s⁻¹ and 5.9 min.
For the molecule B14, the Kd is 1.7 nM, the koff worked out at 0.001 s⁻¹, the kon turned out to be 578000 M⁻¹ s⁻¹ and the “t1/2” value was 11.6 min.
